Assay in all cases: ITC
For series [1], the target named is T1, Dcr1 dsRBD R1322A (loop 4) (Schizosaccharomyces pombe, UniProt Q09884 1258-1358, R1322A).
T1 sequence: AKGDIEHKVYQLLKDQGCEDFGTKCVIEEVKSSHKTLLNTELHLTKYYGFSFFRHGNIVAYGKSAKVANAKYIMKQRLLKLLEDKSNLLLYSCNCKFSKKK

The target of series [2] is T2, Dcr1 dsRBD K1265A (helix 1) (Schizosaccharomyces pombe, UniProt Q09884 1258-1358, K1265A).
T2 sequence: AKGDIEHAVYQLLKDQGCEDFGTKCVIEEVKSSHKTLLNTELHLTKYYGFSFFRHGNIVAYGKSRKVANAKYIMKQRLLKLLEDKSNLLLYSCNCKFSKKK

Series [3] has as its target T3, Dcr1 C-terminal extended dsRBD (Schizosaccharomyces pombe, UniProt Q09884 1258-1358).
T3 sequence: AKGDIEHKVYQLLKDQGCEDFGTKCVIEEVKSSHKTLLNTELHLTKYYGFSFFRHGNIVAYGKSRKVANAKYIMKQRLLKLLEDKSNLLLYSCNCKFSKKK

In series [4] the target is T3, Dcr1 C-terminal extended dsRBD. The source holds these as a separate data set.

Read-outs that look alike come from different tables or passages of the source.

B1: dsRNA 24 bp (RNAfwd/RNArev) (dsRNA)
RNA 1: GGGAUCAAUAUGCUAAGCGAUCCC
RNA 2: GGGAUCGCUUAGCAUAUUGAUCCC
The term Kd denotes the equilibrium constant for the complex coming apart. A high value points to a looser complex. Turning to B1, the binding result in series [1] and in series [2] was “no binding” in each case. This molecule also yielded a Kd in series [3] of 800 nM.

B2: dsDNA 24 bp (DNAfwd/DNArev) (dsDNA)
DNA 1: GGGATCAATATGCTAAGCGATCCC
DNA 2: GGGATCGCTTAGCATATTGATCCC
Take B2: the binding result in series [1] and in series [2] was “no binding” throughout. Binding in series [4] was characterised by a dissociation constant (Kd) of 1500 nM.

(Values after paper PMC3199388.)
